Measured values reported in the DeepSol protein solubility set.

assay: soluble on expression in E. coli; label from the status in PepcDB or PDB records

Sequence	soluble on expression in E. coli
MSLTYYLSIDYGGTNTKALIFDKLGHQIAVSSFETLKNETQSGHRQVNLVKTWNAITSAIREVIQISKLSPEQISAVACIGHGKGLYLLDNKLEPLEQGILSTDNRAKDLAQYFESKLDNIWELTRQHIFPSQSPVILRWLKDYQPETYKSIGAVLSAKDFIRYKLTGKVQQEYGDASGNHWINFQTGTYDPAILDFFGIREIENSLPELIDSADLVPGGISSQAAKETGLVEGTPVVGGLFDIDACALGSGVLESDTFSVISGTWNINTYPSLKPAKQDSGLMTSYFPDRRYLLEASSPTSAGNLNFMLKMLMHQEIDNAKSSGGSIYDNLEEFLTHTDATHHGLIFFPFLYGSNTSQDASACFFGLTTKSTKSQMIRAVYEGIAFAHKQHITDLIKSRGSVPKIIRFSGGATNSPAWMQMFSDILNFPIETVEGTELGGLGGAILARHALDKISLKEAVQDMVRVKAIYKPQLSEVKGYKKKYHAYQKLLETLDPIWSELGHLNEGHHHHHH	soluble
MSYVIDRRLNGKNKSTVNRQRFLRRYREHIKKAVEEAVSRRSITDMEHGEQISIPGRDIDEPVLHHGRGGRQTVVHPGNKEFTAGEHIARPSGGGGGRGGGKASNSGEGMDDFVFQITQEEFLDFMFEDLELPNLVKRHITGTDTFKTVRAGISNDGNPSRINIVRTLRSAHARRIALSGGSRAKLRAALKELERIKREEPDNLGDIQELELEIAKLRARIDRVPFLDTFDLKYNLLVKQPNPTSKAVMFCLMDVSGSMTQATKDIAKRFFILLYLFLKRNYEKIEVVFIRHHTSAREVDEEEFFYSRETGGTIVSSALKMMQEIMAERYPTHEWNIYAAQASDGDNWNDDSPVCRDILLKQIMPFVQYYTYVEITPREHQALWFEYERVREAFEDSFAQQQIVSASDIYPVFRELFQRRLVAKLAAALEHHHHHH	not soluble
RMPGLPDIAFTGDGQMTKHEIRALTLCALAPAAGELLWDVGGGSGTVAIEWMRTHPLCRAVTFERSAARVDQIESNAAALGVPSLAVFGDAPAAFEDVPPELSTPDAIFVGGGVTQDGLLDECWSRLRVGGRMVVNAVTAESEALLLQWFSNCGGQLRKFQVYRGEPLGGFTAWRPQLPVAQWSVTKQSKGDAA	not soluble
MGSDKIHHHHHHMINPQWLHTFAVLVEKGNFTRTAEAIGITQAAVSQHISRLEEEYGTLFLRRPRQLEITPIGENLLTYVKDVECAQKRLQQKLIHDDAEVGDISLITPGSIGLTLFPLLIELQQAFPALNIRHRFAPDSEIVASVLANEHEIGMVTLKPSDPRIHSTHFTEEPLELVVPACHKQNEWVDLQRLGFISHPDGEAMATRLLSRKYPSNPGIQDIPCKGFTNQISLILEPVAKGLGFTVIPQYARKAFERQQDIYVVECGSQVVDTIWLIHRAEWPLSRRAQKAITFLKGKI	not soluble
MGSDKIHHHHHHMSEISAIWERIEAWHAANDQTENLNPGATAEALAQAEKDMGLTFPPEMRESLLRHDGSVDDSWPTGELLSLERMADERKVWMDLLQDGTFDGNASHNESSEALQPGWWNPAWIPLDADGGGNGAVIDLAPGPQGTVGQVIDMDHEVGPSGPKYVSLAAYLEAMLERLSEAEE	not soluble
MVYDDANKKWVPAGGSTGFSRVHIYHHTGNNAFRVVGRKIQDHQVVINCAIPKGLKYNQATQTFHQWRDARQVYGLNFGSKEDASVFASAMMHALEVLNSQDAGEKALFTAGCEV	soluble
MSPVAAMKRKNGVALWRQIADRIRGEIAAGDHDETGMLPPEMTLAEKFGVNRHTVRSAIAALASEGILEPMQGRGTMIARKERLSFPISLRTRFTAGIGDQVKEMEALLLSHTTEPASADLAARLQLPSGAPLVRLETLRKADTRPVSRSTTWFPADRFAGIGEAYRKSGSITAAFKALGVADYVRISTVISAIHADTQDLADLELSPGAILLVTQALNADMDGVPVQYAVSRFSADTVEFTVEN	not soluble
SQVDVKDCANHEIKKVLVPGCHGSEPCIIHRGKPFQLEAVFEANQNTKTAKIEIKASIDGLEVDVPGIDPNACHYMKCPLVKGQQYDIKYTWNVPKIAPKSENVVVTVKVMGDDGVLACAIATHAKIRD	soluble
MAHHHHHHMSTEEQQVTQGTAHAPAPTTVKNKANSYYYWHQHEKDRAKVGDVAPMPTPYLVSKDDARAMAAPAVPTVSVSKYSWCDGDKFVSVYIDTVVPEGGTLDESSIEATFTGNSFKVTFATADEAGRTRAKSLSIRLSKRIDKDRSSTKVKPKTQQILVRLAKKVESVWLDLEGEASDQDSAADSEAADAE	soluble
MSLVTLKDIAAEAGVSIMTVSNVINGNHSKVSKNTIEKIEKIIQKYNYVPNLTARSLTAKSSKIIGIIVPIKGSFNNLFKDPYISELFGIIQNVVRENGYYLMVRSVKDVSDISALLKNWNMDGAIFLMPDYDNLIYSILKENKLPMVFLDSYSKIDNIISVGINDYKGGYIATRYLINNGHRKILFAGPCHKDGIPIPQIIKRLEGYKDALLESNIEFNESLIVDVEPNYEVGINLGRSICNKEFDVTAVFTTADIMGIGIIEGAKLNGKIVPNDLSVIGFDNLLPSVYVTPKLTTISQDIESKATKAVDLLIEYIEKGSVSNNKITLDVELVERQSVGQLSNEGHHHHHH	soluble
MAFKSDVIFEEIKERIATDKEMVKKVGTSFRMTIAGADGKTKVWTIDAKSDTPYVGDDSSRPVEIEINIKDSDFIAIAAGKMKPDQAFMQGKMKLKGNIAKAMKLRTILDPKMLKAKL	soluble
MSLDAPRFHIEEIRFSERDVALRLPFRFGAATVTACPQVYVRARIRFENGGTAEGCAAEMMVPKWFDKNPALSNEQNFEQLRCALRAARAAYVAEDGAQTAWTHFASNYAALQARAKAKGLQALVASYGPALIDRAVMDALCLRSGTSFATAMRANLCGIDIAGSGLADDLAGFDMPAFLASQSPRASIAARHTVGLADAIDDSDALPDAPADGLPTTLAEAVKRYGLTHFKPKLCGNTAQDISRLERIARVIDGHAQLVTLDGNEQYADADDFAVFLDRMLSTPVLWKLAQKTVFVEQPIRRDAALQRSVSAPGKRIPLLIDESDATLDAFVQARALGYTGVSSKSCKGFYKSVVNAARCAHWNAAEDKPRYFLSGEDLTMQAGIGVQQDLALVGWLGLSHVERNGHHYVNGLAAVPEAEQQALLKLHPGLYEPGDGAVRLAIRGGQLPLAPLAAAPGFATGIPGAGISWDAMRSVYEGHHHHHH	not soluble
MSLLIDKFGRPVTNLRISLTKECNLNCFYCHREGQQDGERTMTPEEIERIVRIASRLGIRNVKLTGGEPTVRPDIYEIIQRIRPYVVDLSMTTNGTTLYASAEKLKEAGLDRVNISLDTLDRKKYKMITGYDVLDQVLKGIRRATNLFYPVKLNMVVMRGINDDEIWDMIRFAGEVNAILQLIEIEVPREMENSQFFKDFFYPLKPLEEKFEKIAVEIRERKMHRRRKYFLPVDGKMVEVEVVRSMHNTTFCMNCTRLRLTADGYLKTCLLRKDDLIDILGPIRRGATDDELVKIFKRAVQLRKPYWINEGHHHHHH	soluble
MGSDKIHHHHHHMLDNRIIDELKTIVGADNVATDRQDLICYGYDATQMEFLPDAVVHPGSPDEVSAVLKLANREQFPVYPRGAGSGFTGGALPKGGGIVLVVTRLNRILRIDTENLIAEVEPGVVTEQFQLEVEKLGLFYPPDPASLKFSTLGGNVAENAGGPRCVKYGVTRDFVMGLEVVLPSGEIIRTGGETYKGVVGYDLTRLLCGSEGTLGVITKIIFKLLPLPEAKKTMMTIFDSIDGAAKAVSTIIGNKIIPTTLEFMDHATLQCVEKRFNLGIPASGRAVLIIEVDGDRDLIEKQAARIQELIKPLGLVECKIAKDAAESEALWKVRRLVSPSLRDVNPDKFNEDIVVPRSKVPDVIRVIEKIQQKYAIPIVNFGHAGDGNIHVNIMIDKSVAGQEEKAHEAIAEVFQAALDLNGTMSGEHGVGLAKQPYIHLELKPAQVATMQAIKKALDPNNILNPGKMFPV	not soluble
MCGKTILLEVTPCDNFVFNKSTNLTDTAYVTLKNISEKPVCFKVKTSVPNMYVSRPNPDLLKPGEARQLSVKFRSSDKVSLNAKSYKLKIESCEFESEDIDDLKSFWSSIPNEKILVHKSPIILGTGSSPDFRNDQIASESSRQSSPIQNVSDDGKSSHHSTAKQLQENNENSKSLKYTKQLVEVPLGENQQADQTGTTCDKKDEFQKKNQLEVEIKFVDKIHEIKSQLEDSFELKLKEMEMRLEEKFEKRISRLTQFMETISLSNSPGNSRRVFELDDNFSIVAKKELEQMRQDFEKVLDGQNKIAEEKMNELRKRREELQV	not soluble
MHSLFTLNLDLERAGKVICVQSLPFDTARETLLLLSPVGTQCCYMKNAALFLISHFNLIILESDTWLAYANEAGVNPEEGVADFIRQFNAALPEPVRVDALVGYCSSAPLALLAANQGACRTLLLLNGAYFLKDDGVIKSQYERDVERMMQSIPQGNCAQVYEAVSLLHTKSAYTPSDYRYQQVRPLRELSAFRQYLTFLNSLASLESVRIAQTVKTPTLVWCGSQDRYTDTASSRYIAQLLPHSELVEDPDGQHHDFVDGHERLYLTMTHFLTRHKQRAIQ	not soluble
MELSALTAVSPVDGRYGSKTIALREIFSEYGLLKYRTIVEIRWLQKLAATAEIAEVPAFSAEANQFLDDLAANFSEADALRIKEIERTTNHDVKAVEYFLKEKVADVPELHAVNEFFHFACTSEDINNTSHALMLKEARETVILPEIRNLIDAIKALAVEYRDIPLLSRTHGQPASPSTMGKEMANVAYRMERQYKQIENVEILAKINGAVGNYNAHLSAYPELDWHKFSEEFITESLGVTWNPYTTQIEPHDYIAELFDAVARFNTILIDFDRDVWGYIALGHFKQKTIAGEIGSSTMPHKVNPIDFENSEGNLGLANAVFGHLAQKLPISRWQRDLTDSTVLRNLGVGVGYAIIAYTSTLKGISKLEVNRDALLAELDKNWEVLAEPVQTVMRRYGIEKPYEKLKELTRGKRVDGEAMRNFIDGLELPEHEKARLKEMTPANYIGQAIELTDKL	not soluble
MSLFPILETDRLILRQITDQDAEAIFACFSNDEVTRYYGLENMESIEQAISMIQTFAALYQEKRGIRWGIERRDTKELIGTIGFHALAQKHRRAEIGYEIIPEHWRNGFASEVISKVVSYGFSALGLSRIGAVVFTDNEASNRLLLKMGFQKEGVLRQYMYSKWDSIEGGSHHHHHH	soluble
KGKKVILFAPTFRGSGHGTAHYPFFKIDFERLARYCEKNNAVVLFKMHPFVKNRLNIADKHKQYFVDVSDFREVNDILFITDLLISDYSSLIYEYAVFKKPMIFYAFDLEDYITTRDFYEPYESFVPGKIVQSFDALMDALDNEDYEGEKVIPFLDKHFKYQDGRSSERLVRNLFG	not soluble
SENSDVINFSCLEKELHSALQADRKYQRENDAKFRALNQKVASYEEFRDIVLASHLKPLDRNDISGSPRKQPWNPVACRTNYVCASSEQVQPQLSEVQPRSASEFIRDWRRFAGCSFEKYSLLVSLGGEALQKIFSTEIGLGLLGEFLLILSQCLKSGDEDRVTGVLDGLSKTGRFSINLSLLSQAEQEACEELFNKLKVAAGECHPYKDNSNTSVVCEAGLTHMEDNKTDITTTLKELAGKYGTEK	soluble
SEEGSNKREGYNDQKQQARAGCGKELAVEEMIAAVSERKKGCCPPPPPPHGAPATPARNRPQTQGRGAAAPVVGWPPIRSFRRNLASSSSSKHSPEPQNDNANAKVTLTCKKNPLVKINMDGIPIGRKIDLAAYNSYDGLSSAVKQLFHGFLQAQKDQTNAQIAQQGADDKIFYQLLDGSGEYTLVYEDSEGDRMLVGDVPWKVFVSTAKRLRVLRSSELSHTLIGATARV	soluble
TTCCPSIVARSNFNVCRLPGTPEALCATYTGCIIIPGATCPGDYAN	soluble
